Measurements: PMC2568865, “Hsp90-Dependent Activation of Protein Kinases Is Regulated by Chaperone-Targeted Dephosphorylation of Cdc37” (Molecular Cell, 2008)

T1: pSer13-Cdc37 (human Cdc37 expressed in Sf9 cells, phosphorylated on Ser13) (human, UniProt Q16543 1-378, phosphoserine at 13)
T1 construct: human Cdc37 (p50), phosphorylated on Ser13 in the insect cells; also called p50; Sf9-expressed Cdc37; source: Sf9 cells, baculovirus; purified in the C-K and H-C-K complexes with His6-Cdk4; free Cdc37 obtained as a by-product of the H-C-K complex purification
T1 sequence (looked up): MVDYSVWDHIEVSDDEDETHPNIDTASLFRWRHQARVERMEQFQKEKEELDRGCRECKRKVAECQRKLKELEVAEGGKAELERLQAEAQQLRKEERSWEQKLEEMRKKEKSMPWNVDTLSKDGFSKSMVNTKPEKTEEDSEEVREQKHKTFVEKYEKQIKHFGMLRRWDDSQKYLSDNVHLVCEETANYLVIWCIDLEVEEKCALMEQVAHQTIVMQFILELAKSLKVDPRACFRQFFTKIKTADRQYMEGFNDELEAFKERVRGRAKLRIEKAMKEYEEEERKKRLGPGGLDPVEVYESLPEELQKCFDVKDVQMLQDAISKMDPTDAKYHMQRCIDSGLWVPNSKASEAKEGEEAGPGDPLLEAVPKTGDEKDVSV

T2: Cdc37 (human, Sf9-expressed) dephosphorylated with λ-phosphatase (human, UniProt Q16543 1-378)
T2 construct: human Cdc37 (p50), Ser13 dephosphorylated in vitro by λPP; Same construct as m2 after treatment with λPP; also called dephosphorylated Cdc37; Cdc37 in dephosphorylated C-K or H-C-K complex; source: Sf9 cells, baculovirus; purified in the C-K and H-C-K complexes, then dephosphorylated with λ-phosphatase (NEB)
T2 sequence (looked up): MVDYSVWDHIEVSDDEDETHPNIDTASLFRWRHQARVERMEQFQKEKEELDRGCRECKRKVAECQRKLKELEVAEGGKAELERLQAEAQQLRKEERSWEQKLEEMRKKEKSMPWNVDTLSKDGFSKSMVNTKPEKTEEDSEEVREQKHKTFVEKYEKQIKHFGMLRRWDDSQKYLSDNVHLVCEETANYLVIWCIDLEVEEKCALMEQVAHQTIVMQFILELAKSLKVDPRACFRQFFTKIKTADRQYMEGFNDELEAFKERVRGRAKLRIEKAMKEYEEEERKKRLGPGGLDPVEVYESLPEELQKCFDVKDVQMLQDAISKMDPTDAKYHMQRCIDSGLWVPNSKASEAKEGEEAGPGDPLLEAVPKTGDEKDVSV

B1: pSer13-Cdc37 (E. coli-expressed Cdc37 phosphorylated in vitro with CK2) (natural protein, human, UniProt Q16543 1-378, looked up)
chain: MVDYSVWDHIEVSDDEDETHPNIDTASLFRWRHQARVERMEQFQKEKEELDRGCRECKRKVAECQRKLKELEVAEGGKAELERLQAEAQQLRKEERSWEQKLEEMRKKEKSMPWNVDTLSKDGFSKSMVNTKPEKTEEDSEEVREQKHKTFVEKYEKQIKHFGMLRRWDDSQKYLSDNVHLVCEETANYLVIWCIDLEVEEKCALMEQVAHQTIVMQFILELAKSLKVDPRACFRQFFTKIKTADRQYMEGFNDELEAFKERVRGRAKLRIEKAMKEYEEEERKKRLGPGGLDPVEVYESLPEELQKCFDVKDVQMLQDAISKMDPTDAKYHMQRCIDSGLWVPNSKASEAKEGEEAGPGDPLLEAVPKTGDEKDVSV
modifications: phosphoserine at 13
notes: human Cdc37 (p50), phosphorylated on Ser13 by CK2 in vitro; also called phosphorylated Cdc37; pCdc37; source: E. coli, purified, phosphorylated in vitro with CK2 (Promega), further purified on Resource Q
B2: Cdc37 (E. coli-expressed, unphosphorylated) (natural protein, human, UniProt Q16543 1-378, looked up)
chain: MVDYSVWDHIEVSDDEDETHPNIDTASLFRWRHQARVERMEQFQKEKEELDRGCRECKRKVAECQRKLKELEVAEGGKAELERLQAEAQQLRKEERSWEQKLEEMRKKEKSMPWNVDTLSKDGFSKSMVNTKPEKTEEDSEEVREQKHKTFVEKYEKQIKHFGMLRRWDDSQKYLSDNVHLVCEETANYLVIWCIDLEVEEKCALMEQVAHQTIVMQFILELAKSLKVDPRACFRQFFTKIKTADRQYMEGFNDELEAFKERVRGRAKLRIEKAMKEYEEEERKKRLGPGGLDPVEVYESLPEELQKCFDVKDVQMLQDAISKMDPTDAKYHMQRCIDSGLWVPNSKASEAKEGEEAGPGDPLLEAVPKTGDEKDVSV
notes: human Cdc37 (p50), not phosphorylated; also called WT-Cdc37; nonphosphorylated Cdc37; source: E. coli, purified
B3: His6-tagged Cdk4 (enzyme, human, UniProt P11802 1-303, looked up)
chain: MATSRYEPVAEIGVGAYGTVYKARDPHSGHFVALKSVRVPNGGGGGGGLPISTVREVALLRRLEAFEHPNVVRLMDVCATSRTDREIKVTLVFEHVDQDLRTYLDKAPPPGLPAETIKDLMRQFLRGLDFLHANCIVHRDLKPENILVTSGGTVKLADFGLARIYSYQMALTPVVVTLWYRAPEVLLQSTYATPVDMWSVGCIFAEMFRRKPLFCGNSEADQLGKIFDLIGLPPEDDWPRDVSLPRGAFPPRGPRPVQSVVPEMEESGAQLLLEMLTFNPHKRISAFRALQHSYLHKDEGNPE
notes: Cdk4, Cdc37/Hsp90-dependent protein kinase; also called K (in C-K and H-C-K); source: Sf9 cells, baculovirus, co-expressed with human Cdc37; purified via the His6 tag as C-K and H-C-K complexes; not shown: His6, N-terminal, kept

What was measured:
full-length human Hsp90α = target: T3, full-length human Hsp90α (human, UniProt P07900 1-732); assay: pull-down; GST-PP5 on glutathione Sepharose with Cdc37 or CK2-phosphorylated Cdc37 preincubated with Hsp90α for 1 hr; 4°C, 2 hr; 50 mM HEPES pH 7.5, 150 mM NaCl, 0.1% NP40, BSA; PP5 dephosphorylates Cdc37 during the incubation; settings: both partners purified
T3 construct: human Hsp90α

[1] = target: T1, pSer13-Cdc37 (human Cdc37 expressed in …); assay: co-purification (His6 affinity); human Cdc37 and N-terminally His6-tagged Cdk4 co-expressed in Sf9 cells by baculovirus; complexes purified via the His6 tag on Cdk4; Coomassie-stained SDS-PAGE; settings: partners not purified
[2] = target: T2, Cdc37 (human, Sf9-expressed) …; assay: SEC; purified C-K complex incubated with or without λPP (1:10) for 1 hr at room temperature; Superose 6 HR10/30 in 50 mM Tris pH 7.5, 10 mM KCl, 10 mM MgCl2, 150 mM NaCl, 1 mM EDTA, 3 mM DTT; 1 ml fractions probed by Western blot; settings: both partners purified

Binder | binding result (full-length human Hsp90α) | binding result [1] | binding result [2]
B1 | binds |  | 
B2 | binds |  | 
B3 |  | binds | binds
